Assay results reported in patent US20230257453A1 (published 2023).
Like-named read-outs stand apart in the source and are kept apart here.

How the values were obtained:
Assay in all cases: ELISA
[1] = molecular target: T1, denatured human collagen type IV (UniProt P02462 173-1669; P08572 184-1712)
[2] = molecular target: T2, denatured human collagen I (UniProt P02452 162-1218; P08123 80-1119)
[3] = molecular target: T1, denatured human collagen type IV; remark: listed apart in the source
[4] = molecular target: T2, denatured human collagen I; remark: listed apart in the source

T1 sequence (P02462 173-1669, chain 1 of 2): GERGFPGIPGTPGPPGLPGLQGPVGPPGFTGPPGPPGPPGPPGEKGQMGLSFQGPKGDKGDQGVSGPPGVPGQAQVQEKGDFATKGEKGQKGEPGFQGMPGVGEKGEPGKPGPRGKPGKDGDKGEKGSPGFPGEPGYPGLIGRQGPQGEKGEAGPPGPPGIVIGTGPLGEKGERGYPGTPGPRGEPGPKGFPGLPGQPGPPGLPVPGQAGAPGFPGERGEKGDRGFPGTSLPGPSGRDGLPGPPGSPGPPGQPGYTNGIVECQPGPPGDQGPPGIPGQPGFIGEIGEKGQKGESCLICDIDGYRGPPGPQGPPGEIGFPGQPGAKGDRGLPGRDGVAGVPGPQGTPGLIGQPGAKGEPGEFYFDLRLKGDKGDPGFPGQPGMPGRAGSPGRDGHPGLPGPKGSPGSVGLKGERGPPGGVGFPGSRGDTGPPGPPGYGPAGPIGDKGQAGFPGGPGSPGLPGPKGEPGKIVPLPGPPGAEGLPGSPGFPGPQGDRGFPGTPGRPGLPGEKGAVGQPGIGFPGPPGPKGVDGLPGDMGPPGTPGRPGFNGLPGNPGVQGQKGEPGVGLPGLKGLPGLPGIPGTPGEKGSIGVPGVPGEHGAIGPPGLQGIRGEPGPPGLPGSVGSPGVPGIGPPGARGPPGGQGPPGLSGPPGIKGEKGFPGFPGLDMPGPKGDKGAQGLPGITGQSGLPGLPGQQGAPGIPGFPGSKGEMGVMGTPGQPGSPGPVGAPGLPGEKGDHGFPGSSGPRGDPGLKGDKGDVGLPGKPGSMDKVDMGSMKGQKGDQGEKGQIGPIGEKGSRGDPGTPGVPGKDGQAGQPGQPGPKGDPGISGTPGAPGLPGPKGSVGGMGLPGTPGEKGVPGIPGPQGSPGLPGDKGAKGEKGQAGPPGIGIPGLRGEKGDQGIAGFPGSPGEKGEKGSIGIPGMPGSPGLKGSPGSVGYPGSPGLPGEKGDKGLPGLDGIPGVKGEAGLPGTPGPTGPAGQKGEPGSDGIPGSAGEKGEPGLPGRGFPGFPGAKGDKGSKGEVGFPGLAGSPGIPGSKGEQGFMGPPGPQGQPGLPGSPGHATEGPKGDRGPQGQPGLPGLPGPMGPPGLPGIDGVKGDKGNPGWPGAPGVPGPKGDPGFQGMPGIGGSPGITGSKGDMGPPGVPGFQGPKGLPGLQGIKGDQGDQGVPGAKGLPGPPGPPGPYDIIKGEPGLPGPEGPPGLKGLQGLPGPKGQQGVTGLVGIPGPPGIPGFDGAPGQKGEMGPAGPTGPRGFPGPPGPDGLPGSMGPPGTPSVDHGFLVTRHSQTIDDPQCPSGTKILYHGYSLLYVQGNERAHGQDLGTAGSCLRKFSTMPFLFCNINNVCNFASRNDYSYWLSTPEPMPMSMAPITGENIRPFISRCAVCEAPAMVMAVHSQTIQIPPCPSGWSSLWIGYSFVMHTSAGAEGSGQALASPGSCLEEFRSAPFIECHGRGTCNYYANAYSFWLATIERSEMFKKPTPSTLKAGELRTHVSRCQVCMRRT
T1 sequence (P08572 184-1712, chain 2 of 2): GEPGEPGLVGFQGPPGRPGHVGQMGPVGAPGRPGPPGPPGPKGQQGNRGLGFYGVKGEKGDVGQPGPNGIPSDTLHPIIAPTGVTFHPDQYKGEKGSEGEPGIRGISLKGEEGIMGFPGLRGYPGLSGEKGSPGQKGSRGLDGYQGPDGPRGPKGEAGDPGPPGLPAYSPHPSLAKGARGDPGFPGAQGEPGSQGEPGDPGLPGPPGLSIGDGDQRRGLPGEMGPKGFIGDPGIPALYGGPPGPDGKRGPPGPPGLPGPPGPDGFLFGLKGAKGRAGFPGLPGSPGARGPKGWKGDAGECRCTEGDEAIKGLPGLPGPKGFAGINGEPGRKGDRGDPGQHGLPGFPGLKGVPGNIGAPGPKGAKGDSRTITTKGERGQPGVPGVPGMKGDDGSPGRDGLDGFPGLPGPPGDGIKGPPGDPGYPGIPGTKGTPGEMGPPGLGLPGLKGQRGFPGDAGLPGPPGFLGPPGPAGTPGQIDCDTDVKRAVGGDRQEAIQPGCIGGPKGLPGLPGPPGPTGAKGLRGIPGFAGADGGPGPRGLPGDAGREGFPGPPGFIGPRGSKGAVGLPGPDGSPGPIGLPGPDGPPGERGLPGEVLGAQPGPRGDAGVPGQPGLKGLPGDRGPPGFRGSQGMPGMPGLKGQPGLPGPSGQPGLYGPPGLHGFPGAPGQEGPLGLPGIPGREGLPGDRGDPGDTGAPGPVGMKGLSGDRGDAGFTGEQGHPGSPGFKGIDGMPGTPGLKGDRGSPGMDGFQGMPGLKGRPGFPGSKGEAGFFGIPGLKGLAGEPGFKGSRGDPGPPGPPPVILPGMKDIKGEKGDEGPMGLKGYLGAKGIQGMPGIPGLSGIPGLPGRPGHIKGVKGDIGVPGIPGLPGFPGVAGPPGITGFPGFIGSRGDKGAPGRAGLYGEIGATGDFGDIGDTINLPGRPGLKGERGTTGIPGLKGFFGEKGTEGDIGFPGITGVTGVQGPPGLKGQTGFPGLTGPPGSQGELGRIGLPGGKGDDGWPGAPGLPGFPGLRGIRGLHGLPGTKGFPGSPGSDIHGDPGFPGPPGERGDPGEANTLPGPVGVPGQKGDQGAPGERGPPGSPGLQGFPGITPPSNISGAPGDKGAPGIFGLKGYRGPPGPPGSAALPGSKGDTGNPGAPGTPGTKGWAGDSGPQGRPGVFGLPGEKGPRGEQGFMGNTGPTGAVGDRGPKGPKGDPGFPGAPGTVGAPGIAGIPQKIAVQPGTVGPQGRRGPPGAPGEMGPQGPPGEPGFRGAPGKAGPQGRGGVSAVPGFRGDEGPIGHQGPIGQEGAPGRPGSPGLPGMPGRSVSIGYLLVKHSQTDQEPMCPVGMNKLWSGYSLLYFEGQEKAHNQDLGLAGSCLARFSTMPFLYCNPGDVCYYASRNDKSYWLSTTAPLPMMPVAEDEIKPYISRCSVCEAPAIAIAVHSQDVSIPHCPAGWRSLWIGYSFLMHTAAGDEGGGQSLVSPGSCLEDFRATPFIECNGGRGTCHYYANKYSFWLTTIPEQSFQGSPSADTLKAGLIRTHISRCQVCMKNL
T2 sequence (P02452 162-1218 A1075T, chain 1 of 2): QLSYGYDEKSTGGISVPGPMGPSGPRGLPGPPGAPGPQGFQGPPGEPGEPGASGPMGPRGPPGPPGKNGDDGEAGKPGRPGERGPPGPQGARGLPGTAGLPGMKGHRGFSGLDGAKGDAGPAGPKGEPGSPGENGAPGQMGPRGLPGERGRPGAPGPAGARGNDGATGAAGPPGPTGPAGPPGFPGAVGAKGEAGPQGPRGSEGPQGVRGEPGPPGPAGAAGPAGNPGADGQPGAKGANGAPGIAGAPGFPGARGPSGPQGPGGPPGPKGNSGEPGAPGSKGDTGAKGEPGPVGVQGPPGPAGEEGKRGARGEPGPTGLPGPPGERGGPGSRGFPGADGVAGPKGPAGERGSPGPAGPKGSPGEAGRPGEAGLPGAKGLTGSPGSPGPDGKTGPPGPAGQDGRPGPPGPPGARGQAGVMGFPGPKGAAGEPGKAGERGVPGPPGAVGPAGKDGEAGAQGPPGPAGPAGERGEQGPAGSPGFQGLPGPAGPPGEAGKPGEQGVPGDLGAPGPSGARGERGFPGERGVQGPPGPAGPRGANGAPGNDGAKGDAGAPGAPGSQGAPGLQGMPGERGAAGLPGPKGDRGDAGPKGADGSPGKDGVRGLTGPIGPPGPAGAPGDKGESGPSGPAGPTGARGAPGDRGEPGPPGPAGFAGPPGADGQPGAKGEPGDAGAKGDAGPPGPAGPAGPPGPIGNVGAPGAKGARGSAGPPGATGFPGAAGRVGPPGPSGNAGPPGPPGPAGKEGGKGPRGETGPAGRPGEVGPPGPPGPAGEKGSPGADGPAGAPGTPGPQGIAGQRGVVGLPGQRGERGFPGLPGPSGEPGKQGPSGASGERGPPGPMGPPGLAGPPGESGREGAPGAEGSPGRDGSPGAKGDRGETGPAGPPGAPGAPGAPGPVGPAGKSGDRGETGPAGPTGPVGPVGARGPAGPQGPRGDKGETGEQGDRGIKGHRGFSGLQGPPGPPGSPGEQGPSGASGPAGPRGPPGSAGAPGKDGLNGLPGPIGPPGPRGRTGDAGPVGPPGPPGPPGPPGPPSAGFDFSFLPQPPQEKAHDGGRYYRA
T2 sequence (P08123 80-1119, chain 2 of 2): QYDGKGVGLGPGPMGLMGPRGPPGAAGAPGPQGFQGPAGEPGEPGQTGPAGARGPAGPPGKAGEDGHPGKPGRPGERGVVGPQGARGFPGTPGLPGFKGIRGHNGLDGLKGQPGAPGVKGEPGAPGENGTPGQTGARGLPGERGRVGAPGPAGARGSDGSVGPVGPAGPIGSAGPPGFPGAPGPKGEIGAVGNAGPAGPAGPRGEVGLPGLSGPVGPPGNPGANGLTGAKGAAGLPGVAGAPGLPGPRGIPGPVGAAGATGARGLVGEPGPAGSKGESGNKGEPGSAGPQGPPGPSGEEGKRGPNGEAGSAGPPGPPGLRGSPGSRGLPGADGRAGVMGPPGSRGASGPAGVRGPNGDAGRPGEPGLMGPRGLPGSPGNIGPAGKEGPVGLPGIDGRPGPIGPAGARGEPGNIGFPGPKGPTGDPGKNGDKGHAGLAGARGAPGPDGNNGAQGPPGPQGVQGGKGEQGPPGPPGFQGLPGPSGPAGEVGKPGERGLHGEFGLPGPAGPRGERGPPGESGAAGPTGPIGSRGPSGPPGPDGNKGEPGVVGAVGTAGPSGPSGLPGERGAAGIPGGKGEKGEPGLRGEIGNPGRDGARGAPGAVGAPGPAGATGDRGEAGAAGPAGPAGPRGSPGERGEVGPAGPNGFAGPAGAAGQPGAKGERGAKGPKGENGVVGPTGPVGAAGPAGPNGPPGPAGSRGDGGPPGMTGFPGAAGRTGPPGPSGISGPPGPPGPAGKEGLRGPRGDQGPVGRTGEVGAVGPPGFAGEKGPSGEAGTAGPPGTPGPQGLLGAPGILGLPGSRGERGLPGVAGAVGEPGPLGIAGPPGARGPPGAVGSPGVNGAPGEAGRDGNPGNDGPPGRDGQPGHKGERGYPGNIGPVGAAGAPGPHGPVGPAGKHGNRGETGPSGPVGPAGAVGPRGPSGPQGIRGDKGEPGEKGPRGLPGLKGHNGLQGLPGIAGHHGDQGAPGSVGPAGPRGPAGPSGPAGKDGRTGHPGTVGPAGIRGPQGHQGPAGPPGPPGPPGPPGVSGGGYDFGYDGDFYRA

B1: P27622716 (antibody)
chain 1: not shown
chain 2: DIVMTQTPLSLPVTPGEPASISCRSSQSIVSSWGNTYLEWYLQKPGQSPQLLIYKVSNRFSGVPDRFSGSGSGTDFTLKISRVEAEDVGVYYCFQGSHVPWTFGQGTKVEIKRTVAAPSVFIFPPSDEQLKSGTASVVCLLNNFYPREAKVQWKVDNALQSGNSQESVTEQDSKDSTYSLSSTLTLSKADYEKHKVYACEVTHQGLSSPVTKSFNRGEC
EC50 [1]: 4.01 nM
EC50 [2]: 3.73 nM

B2: P27912716 (antibody)
chain 1: not shown
chain 2: DIVMTQTPLSLPVTPGEPASISCRSSQSIVSSWGNTYLEWYLQKPGQSPQLLIYKVSNRFSGVPDRFSGSGSGTDFTLKISRVEAEDVGVYYCFQGSHVPWTFGQGTKVEIKRTVAAPSVFIFPPSDEQLKSGTASVVCLLNNFYPREAKVQWKVDNALQSGNSQESVTEQDSKDSTYSLSSTLTLSKADYEKHKVYACEVTHQGLSSPVTKSFNRGEC
EC50 [3]: 4.97 nM

B3: P27202714 (antibody)
chain 1: not shown
chain 2: DIVMTQTPLSLPVTPGEPASISCRSSQSIVHSQGNTYLEWYLQKPGQSPQLLIYKVSNRFSGVPDRFSGSGSGTDFTLKISRVEAEDVGVYYCFQGSHVPWTFGQGTKVEIKRTVAAPSVFIFPPSDEQLKSGTASVVCLLNNFYPREAKVQWKVDNALQSGNSQESVTEQDSKDSTYSLSSTLTLSKADYEKHKVYACEVTHQGLSSPVTKSFNRGEC
EC50 [3]: 30.4 nM

B4: P27962798 (antibody)
chain 1: not shown
chain 2: DIVMTQTPLSLPVTPGEPASISCRSSQSIVHSNANTYLEWYLQKPGQSPQLLIYKVSNRFSGVPDRFSGSGSGTDFTLKISRVEAEDVGVYYCFQGSHVPWTFGQGTKVEIKRTVAAPSVFIFPPSDEQLKSGTASVVCLLNNFYPREAKVQWKVDNALQSGNSQESVTEQDSKDSTYSLSSTLTLSKADYEKHKVYACEVTHQGLSSPVTKSFNRGEC
EC50 [3]: 2.53 nM

B5: P27902713 (antibody)
chain 1: not shown
chain 2: DIVMTQTPLSLPVTPGEPASISCRSSQSIVHSNGNTYLEWYLQKPGQSPQLLIYKVSNRFSGVPDRFSGSGSGTDFTLKISRVEAEDVGVYYCFQGSHVPWTFGQGTKVEIKRTVAAPSVFIFPPSDEQLKSGTASVVCLLNNFYPREAKVQWKVDNALQSGNSQESVTEQDSKDSTYSLSSTLTLSKADYEKHKVYACEVTHQGLSSPVTKSFNRGEC
EC50 [3]: 57.4 nM

B6: P27152797 (antibody)
chain 1: not shown
chain 2: DIVMTQTPLSLPVTPGEPASISCRSSQSIVHSSGNTYLEWYLQKPGQSPQLLIYKVSNRFSGVPDRFSGSGSGTDFTLKISRVEAEDVGVYYCFQGSHVPWTFGQGTKVEIKRTVAAPSVFIFPPSDEQLKSGTASVVCLLNNFYPREAKVQWKVDNALQSGNSQESVTEQDSKDSTYSLSSTLTLSKADYEKHKVYACEVTHQGLSSPVTKSFNRGEC
EC50 [4]: 26 nM
EC50 [1]: 9.3 nM

B7: P28612716 (antibody)
chain 1: not shown
chain 2: DIVMTQTPLSLPVTPGEPASISCRSSQSIVSSWGNTYLEWYLQKPGQSPQLLIYKVSNRFSGVPDRFSGSGSGTDFTLKISRVEAEDVGVYYCFQGSHVPWTFGQGTKVEIKRTVAAPSVFIFPPSDEQLKSGTASVVCLLNNFYPREAKVQWKVDNALQSGNSQESVTEQDSKDSTYSLSSTLTLSKADYEKHKVYACEVTHQGLSSPVTKSFNRGEC
EC50 [3]: 2.63 nM

B8: P27922716 (antibody)
chain 1: not shown
chain 2: DIVMTQTPLSLPVTPGEPASISCRSSQSIVSSWGNTYLEWYLQKPGQSPQLLIYKVSNRFSGVPDRFSGSGSGTDFTLKISRVEAEDVGVYYCFQGSHVPWTFGQGTKVEIKRTVAAPSVFIFPPSDEQLKSGTASVVCLLNNFYPREAKVQWKVDNALQSGNSQESVTEQDSKDSTYSLSSTLTLSKADYEKHKVYACEVTHQGLSSPVTKSFNRGEC
EC50 [3]: 4.5 nM

B9: P27962797 (antibody)
chain 1: not shown
chain 2: DIVMTQTPLSLPVTPGEPASISCRSSQSIVHSSGNTYLEWYLQKPGQSPQLLIYKVSNRFSGVPDRFSGSGSGTDFTLKISRVEAEDVGVYYCFQGSHVPWTFGQGTKVEIKRTVAAPSVFIFPPSDEQLKSGTASVVCLLNNFYPREAKVQWKVDNALQSGNSQESVTEQDSKDSTYSLSSTLTLSKADYEKHKVYACEVTHQGLSSPVTKSFNRGEC
EC50 [3]: 6.48 nM

B10: P27202716 (antibody)
chain 1: not shown
chain 2: DIVMTQTPLSLPVTPGEPASISCRSSQSIVSSWGNTYLEWYLQKPGQSPQLLIYKVSNRFSGVPDRFSGSGSGTDFTLKISRVEAEDVGVYYCFQGSHVPWTFGQGTKVEIKRTVAAPSVFIFPPSDEQLKSGTASVVCLLNNFYPREAKVQWKVDNALQSGNSQESVTEQDSKDSTYSLSSTLTLSKADYEKHKVYACEVTHQGLSSPVTKSFNRGEC
EC50 [3]: 3.34 nM

B11: P27952798 (antibody)
chain 1: not shown
chain 2: DIVMTQTPLSLPVTPGEPASISCRSSQSIVHSNANTYLEWYLQKPGQSPQLLIYKVSNRFSGVPDRFSGSGSGTDFTLKISRVEAEDVGVYYCFQGSHVPWTFGQGTKVEIKRTVAAPSVFIFPPSDEQLKSGTASVVCLLNNFYPREAKVQWKVDNALQSGNSQESVTEQDSKDSTYSLSSTLTLSKADYEKHKVYACEVTHQGLSSPVTKSFNRGEC
EC50 [3]: 18.4 nM

B12: P27202713 (antibody)
chain 1: not shown
chain 2: DIVMTQTPLSLPVTPGEPASISCRSSQSIVHSNGNTYLEWYLQKPGQSPQLLIYKVSNRFSGVPDRFSGSGSGTDFTLKISRVEAEDVGVYYCFQGSHVPWTFGQGTKVEIKRTVAAPSVFIFPPSDEQLKSGTASVVCLLNNFYPREAKVQWKVDNALQSGNSQESVTEQDSKDSTYSLSSTLTLSKADYEKHKVYACEVTHQGLSSPVTKSFNRGEC
EC50 [3]: 7.41 nM

B13: P27652716 (antibody, V domains shown)
VH: QVTLKESGPALVKPTQTLTLTCTFSGFSLSTPGMGVWWIRQPPGEGLEWLADIWWDDNKYTNPSLKSRLTISKDTSKNQVVLTMTNMDPVDTATYYCARRANYGNPYYAQDYWGQGTTVTVSS
VL: DIVMTQTPLSLPVTPGEPASISCRSSQSIVSSWGNTYLEWYLQKPGQSPQLLIYKVSNRFSGVPDRFSGSGSGTDFTLKISRVEAEDVGVYYCFQGSHVPWTFGQGTKVEIKR
EC50 [1]: 9.91 nM
EC50 [2]: 11.9 nM

B14: P27632716 (antibody, V domains shown)
VH: QVTLKESGPALVKPTQTLTLTCTFSGFSLSTPGMGVWWIRQPPGEALEWLADIWWDDNKYTNPSLKSRLTISKDTSKNQVVLTMTNMDPVDTATYYCARRANYGNPYYAQDYWGQGTTVTVSS
VL: DIVMTQTPLSLPVTPGEPASISCRSSQSIVSSWGNTYLEWYLQKPGQSPQLLIYKVSNRFSGVPDRFSGSGSGTDFTLKISRVEAEDVGVYYCFQGSHVPWTFGQGTKVEIKR
EC50 [1]: 5.05 nM
EC50 [2]: 3.04 nM

B15: P27592716 (antibody, V domains shown)
VH: EVQLVESGGGLVQPGGSLRLSCAASGFSLSTPGMGVWWIRQAPGKGLEWLADIWWDDNKYTNPSLKSRLTISRDNAKNSLYLQMNSLRAEDTAVYYCARRANYGNPYYAQDYWGQGTTVTVSS
VL: DIVMTQTPLSLPVTPGEPASISCRSSQSIVSSWGNTYLEWYLQKPGQSPQLLIYKVSNRFSGVPDRFSGSGSGTDFTLKISRVEAEDVGVYYCFQGSHVPWTFGQGTKVEIKR
EC50 [1]: 1.86 nM
EC50 [2]: 2.44 nM

B16: P27642716 (antibody, V domains shown)
VH: QVTLKESGPALVKPTQTLTLTCTFSGFSLSTPGMGVWWIRQPPGKGLEWLADIWWDDNKYTNPSLKSRLTISKDTSKNQVVLTMTNMDPVDTATYYCARRANYGNPYYAQDYWGQGTTVTVSS
VL: DIVMTQTPLSLPVTPGEPASISCRSSQSIVSSWGNTYLEWYLQKPGQSPQLLIYKVSNRFSGVPDRFSGSGSGTDFTLKISRVEAEDVGVYYCFQGSHVPWTFGQGTKVEIKR
EC50 [1]: 1.69 nM
EC50 [2]: 2.39 nM
